B1: TDP‐43 low‐complexity domain (TDP‐43^LCD), amino acids 267–414 of TDP‐43 (domain or fragment, UniProt Q13148 267-414, looked up)
chain: NRQLERSGRFGGNPGGFGNQGGFGNSRGGGAGLGNNQGSNMGGGMNFGAFSINPAMMAAAQAALQSSWGMMGMLASQQNQSGPSGNNQNQGNMQREPNQAFGSGNNSYSGSNSGAAIGWGSASNAGSGSGFNGGFGSSMDSKSSGWGM
modifications: Cy5 (mono NHS ester) label in TCCD and, at 1% of the protein, in FRAP; unlabelled in the other assays
notes: source: E. coli BL21(DE3), purified from inclusion bodies (HisTrap in 8 M urea), buffer exchanged into 20 mM MES pH 6.0

For assay [1], the target named is T1, HspB5^WT (wild-type human HspB5, αB‐crystallin) (human, UniProt P02511 1-175, Alexa Fluor 647 (NHS ester) label in TCCD and in the condensate partitioning experiment; unlabelled in the other assays).
T1 construct: Small heat shock protein HspB5 (αB-crystallin), human, wild type, full-length isoform; Vector pET3a or pET24a; source: E. coli BL21(DE3), purified
T1 sequence (looked up): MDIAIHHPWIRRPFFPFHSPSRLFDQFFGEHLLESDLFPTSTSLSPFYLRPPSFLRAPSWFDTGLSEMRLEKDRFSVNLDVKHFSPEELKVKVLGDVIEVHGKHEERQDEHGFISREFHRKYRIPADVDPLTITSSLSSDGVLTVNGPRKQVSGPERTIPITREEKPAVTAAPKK
The assay is described as follows: two-color coincidence detection (TCCD), confocal single-molecule fluorescence; fluorescently labelled TDP-43^LCD and labelled sHsp, diluted to 200 nM in 20 mM MES pH 6.0, 25°C, both in solution; peaks found in both channels within 10 ms counted as coincident (hetero-oligomers). The following applies: both partners purified.

The target in assay [2] is B1. The description is as above. The conditions noted are these: both partners purified.

Take B1: the binding result in assay [1] is on record as “binds”.

B2: HspB5^ACD (core α‐crystallin domain of HspB5, residues 68–162) (domain or fragment, human, UniProt P02511 68-162, looked up)
chain: MRLEKDRFSVNLDVKHFSPEELKVKVLGDVIEVHGKHEERQDEHGFISREFHRKYRIPADVDPLTITSSLSSDGVLTVNGPRKQVSGPERTIPIT
modifications: Alexa Fluor 647 (NHS ester) label in TCCD and in the condensate partitioning experiment
notes: Small heat shock protein HspB5 (αB-crystallin), α-crystallin domain, residues 68-162; pET28 vector, gift of A. Laganowsky (Laganowsky et al., 2010); also called core domain of HspB5; source: E. coli BL21(DE3), purified
As for B2, in assay [2], the binding result was “binds”.

The values are drawn from article PMC13140710, “Small heat shock proteins HspB1 and HspB5 differentially alter the condensation and aggregation of the TDP‐43 low‐complexity domain” (Protein Science : A Publication of the Protein Society, 2026).
